According to article PMC4455164, “Facilitated Tau Degradation by USP14 Aptamers via Enhanced Proteasome Activity”:

B1: USP14-2 mutant (structured_RNA)
RNA: GGGUUCACUGCAGACUUGACGAAGCUUCUGAAAAAAAGUUAGUUUCGCUGGUUUAAAAUCGGUGCGGAAUGGAUCCACAUCUACGAAUUC
B2: USP14-3 mutant (structured_RNA)
RNA: GGGUUCACUGCAGACUUGACGAAGCUUAAAAAAAAGGCUCGUUUGGCCUGCCGAAAAAAGGCCGGGAAAUGGAUCCACAUCUACGAAUUC
B3: USP14-1 mutant (structured_RNA)
RNA: GGGUUCACUGCAGACUUGACGAAGCUUGCAGUGAUGUGCUUCUAAAAAACAACCUAAAAAAAUUGCCAAUGGAUCCACAUCUACGAAUUC

Each binder was assayed against USP14 (GST-USP14) (UniProt P54578 1-494) (assay: GST pull-down with RT-PCR; 2 pmol GST-protein on GST sepharose 4B resin + 20 pmol RNA; pull-down buffer not restated; SELEX binding buffer 30 mM Tris-HCl pH 7.5, 150 mM NaCl, 1.5 mM MgCl2, 2 mM DTT, 1% BSA, RT). Details: protein: recombinant; tags: N-terminal GST (pGEX-2T).
USP14 (GST-USP14), sequence (P54578 whole entry): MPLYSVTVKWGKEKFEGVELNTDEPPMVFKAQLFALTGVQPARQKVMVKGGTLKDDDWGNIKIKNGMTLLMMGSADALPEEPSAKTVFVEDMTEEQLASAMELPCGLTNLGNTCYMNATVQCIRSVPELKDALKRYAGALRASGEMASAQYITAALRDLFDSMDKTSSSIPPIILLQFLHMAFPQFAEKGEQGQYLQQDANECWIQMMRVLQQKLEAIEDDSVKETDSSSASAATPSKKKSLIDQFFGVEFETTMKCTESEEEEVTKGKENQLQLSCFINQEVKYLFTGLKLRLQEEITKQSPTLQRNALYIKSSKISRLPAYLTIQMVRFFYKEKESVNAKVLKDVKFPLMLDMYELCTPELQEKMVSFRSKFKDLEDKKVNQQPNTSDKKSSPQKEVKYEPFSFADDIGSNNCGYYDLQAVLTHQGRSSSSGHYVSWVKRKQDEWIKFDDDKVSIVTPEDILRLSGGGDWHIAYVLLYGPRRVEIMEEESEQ

Binding result, no binding:
B1
B2
UUUGUCUAGCGCGUAGUGGGGAGAUGUUGUGAUACUGGGG (ssRNA) [control RNA aptamer]
B3
